Here are results for two molecules from patent publication US20210246206A1 (Stanford University, published 2021).

This assay has as its target T1, purified human CD47-Fc fusion protein (human, UniProt Q08722 19-139, limits assumed).
T1 construct: Coated on ELISA plates at 1.0 ug/ml; also called soluble CD47; human CD47 soluble protein; not shown: Fc part
The assay can be described thus: ELISA on coated human CD47 soluble protein (FIG. 11). A general note: ELISA stands for enzyme-linked immunosorbent assay.

T1 sequence (Q08722 19-139 limits assumed): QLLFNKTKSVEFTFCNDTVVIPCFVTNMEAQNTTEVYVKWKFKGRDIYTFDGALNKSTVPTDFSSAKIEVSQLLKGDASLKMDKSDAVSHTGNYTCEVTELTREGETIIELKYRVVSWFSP

B1: chimeric 8B6 antibody (antibody, V domains shown)
VH: EVQLQQSGPELVKPGASVKMSCKASGYTFTTYVVHWVKQTPGQGLEWIGYINPYNDGTKYNEKFKGKATLTSDKSSSTAYMEFSSLTSEDSAVYYCVRGYYRYGYTMDYWGQGTSVTVSS
VL: DIVMTQSPATLSVTPGDRVSLSCRASQNFSDYLHWYQQKSHESPRLLIKYVSHSISGIPSRFSGSGSGSDFTLSINSVEPEDVGVYYCQNGHSFPPTFGGGTKLEIK
notes: Mouse 8B6 variable regions in a chimeric native IgG; detection was with anti-human kappa
For B1, the binding result is recorded as “binds”.

B2: chimeric 5F9 antibody (antibody, V domains shown)
VH: QVQLQQPGAELVKPGASVMMSCKASGYTFTNYNMHWVKQTPGQGLEWIGTIYPGNDDTSYNQKFKDKATLTADKSSSAAYMQLSSLTSEDSAVYYCARGGYRAMDYWGQGTSVTVSS
VL: DVLMTQTPLSLPVSLGDQASISCRSSQSIVYSNGNTYLGWYLQKPGQSPKLLIYKVSNRFSGVPDRFSGSGSGTDFTLKISRVEAEDLGVYHCFQGSHVPYTFGGGTKVEIK
notes: Mouse 5F9 variable regions in a chimeric native IgG; detection was with anti-human kappa
Take B2: the binding result is listed as “binds”.
